As a reminder, the stoichiometry N is a count of units in the complex or per binding partner.

The target of assay [1] is T1, Membrane scaffold protein (MSP): recombinant 44-243 fragment of human apolipoprotein A1 with an N-terminal … (human, Printed limits 44-243 are in mature numbering: mature apoA-I is precursor 25-267 (243 aa), so residue 243 is the C-terminus and the offset is +24. N-terminal His6 tag omitted. Each nanodisc contains t). The experiment in a line: NMR titration; VSTx1 sample (20 μM by the legend of Fig. 2, 10 mM Tris-Ac, pH 7.0, no added salt) titrated with a lipid-free MSP solution (0.7 mM); 1D 1H-NMR signal intensity taken as free peptide; 40-45 °C; fits to partition equilibrium (eq. 1) and Langmuir isotherm (eq. 2); MSP concentration and n counted per two MSP molecules (MSP×2). The settings on record: both partners purified.

Assay [2] has as its target T1, Membrane scaffold protein (MSP): …. The assay is described as above. The settings on record: both partners purified. The source holds these as a separate data set.

T1 sequence (chain, as listed by the source): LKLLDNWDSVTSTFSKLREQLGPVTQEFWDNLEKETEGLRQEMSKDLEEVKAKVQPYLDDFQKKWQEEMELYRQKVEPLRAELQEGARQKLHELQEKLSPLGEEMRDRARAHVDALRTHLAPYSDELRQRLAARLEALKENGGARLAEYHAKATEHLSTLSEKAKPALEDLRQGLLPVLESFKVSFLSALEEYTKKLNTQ

B1: VSTx1, voltage sensor toxin from Grammostola spatulata spider venom (recombinant analogue with additional N-terminal Gly-Ser) (peptide)
chain: GSECGKFMWKCKNSNDCCKDLVCSSRWKWCVLASPF
notes: additional N-terminal Gly-Ser residues left by the hydrolysis with thrombin; VSTx1 toxin from Grammostola spatulata spider venom, 34 AA, 4010 Da; three disulfide bonds (cysteine knot); The gene was built from synthetic oligonucleotides; also called VSTx1 toxin; recombinant VSTx1 analogue; not shown: thioredoxin (TRX), N-terminal, cleaved
Regarding B1, the “stoichiometry N” value in assay [1] was 1.6. For the same molecule, in assay [2], the Ka was 50000 ± 0.02 M⁻¹ and the “stoichiometry N” value amounted to 3.2 ± 0.9.
